From patent publication US20180155451A1 (published 2018)

T1: FcγRIIb extracellular domain with C-terminal His tag (human, UniProt P31994 43-217)
T1 construct: extracellular domain; Soluble receptor expressed in FreeStyle293 cells, used as analyte in Biacore; also called FcgRIIb; 2b; not shown: His tag at the C terminus
T1 sequence (looked up): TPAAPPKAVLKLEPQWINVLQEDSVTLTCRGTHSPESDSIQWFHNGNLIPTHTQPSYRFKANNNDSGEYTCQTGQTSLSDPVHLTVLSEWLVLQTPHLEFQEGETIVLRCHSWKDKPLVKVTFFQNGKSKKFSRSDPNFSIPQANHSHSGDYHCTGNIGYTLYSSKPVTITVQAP

T2: FcγRIIb (human, UniProt P31994 43-217)
T2 construct: extracellular domain; also called FcgRIIb; 2b; not shown: His tag at the C terminus
T2 sequence (looked up): T1 sequence (looked up)

T3: FcγRIIa H (human, UniProt P12318 34-217)
T3 construct: extracellular domain; also called FcgRIIa H type; 2aH
T3 sequence (looked up): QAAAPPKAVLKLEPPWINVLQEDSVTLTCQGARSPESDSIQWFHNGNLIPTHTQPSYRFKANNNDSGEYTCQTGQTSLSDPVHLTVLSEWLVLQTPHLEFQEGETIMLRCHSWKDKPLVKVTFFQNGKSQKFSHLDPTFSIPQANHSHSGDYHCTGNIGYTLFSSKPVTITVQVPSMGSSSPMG

T4: FcγRIIb (human, UniProt P31994 43-217)
T4 construct: extracellular domain; also called FcgRIIb; 2b
T4 sequence (looked up): T1 sequence (looked up)

B1: GpH7-A5/GpH7-B3 variant P331_16H/GpL16-k0 (antibody, human IgG1, kappa)
heavy 1: not shown
heavy 2: not shown
light: DIVMTQSPLSLPVTPGEPASISCQASESLVHSNRNTYLHWYLQKPGQSPQLLIYKVSNRFSGVPDRFSGSGSGTDFTLKISRVEAEDVGVYYCSQNTHVPPTFGQGTKVEIERTVAAPSVFIFPPSDEQLKSGTASVVCLLNNFYPREAKVQWKVDNALQSGNSQESVTEQDSKDSTYSLSSTLTLSKADYEKHKVYACEVTHQGLSSPVTKSFNRGEC
notes: Heterodimerized anti-glypican-3 IgG1; P331H (EU) only in the GpH7-B3 chain; also called He Ab
B2: GpH7-A5/GpH7-B3 variant P331_18N/GpL16-k0 (antibody, human IgG1, kappa)
heavy 1: not shown
heavy 2: not shown
light: B1 light
notes: Heterodimerized anti-glypican-3 IgG1; P331N (EU) only in the GpH7-B3 chain; also called He Ab
B3: GpH7-A5/GpH7-B3 variant P331_20W/GpL16-k0 (antibody, human IgG1, kappa)
heavy 1: not shown
heavy 2: not shown
light: B1 light
notes: Heterodimerized anti-glypican-3 IgG1; P331W (EU) only in the GpH7-B3 chain; also called He Ab
B4: GpH7-A5/GpH7-B3 variant I332_02A/GpL16-k0 (antibody, human IgG1, kappa)
heavy 1: not shown
heavy 2: not shown
light: B1 light
notes: heterodimerized IgG1; alteration in the GpH7-B3 H chain only; also called He Ab
B5: GpH7-A5/GpH7-B3 variant I332_04F/GpL16-k0 (antibody, human IgG1, kappa)
heavy 1: not shown
heavy 2: not shown
light: B1 light
notes: as for B4
B6: GpH7-A5/GpH7-B3 variant I332_06M/GpL16-k0 (antibody, human IgG1, kappa)
heavy 1: not shown
heavy 2: not shown
light: B1 light
notes: as for B4
B7: GpH7-A5/GpH7-B3 variant I332_14T/GpL16-k0 (antibody, human IgG1, kappa)
heavy 1: not shown
heavy 2: not shown
light: B1 light
notes: as for B4
B8: GpH7-A5/GpH7-B3 variant I332_15Y/GpL16-k0 (antibody, human IgG1, kappa)
heavy 1: not shown
heavy 2: not shown
light: B1 light
notes: as for B4
B9: GpH7-A5/GpH7-B3 variant P331_20W/GpL16-k0 (antibody, human IgG1, kappa)
heavy 1: not shown
heavy 2: not shown
light: B1 light
notes: as for B4
B10: GpH7-A5/GpH7-B3 variant E333_13S/GpL16-k0 (antibody, human IgG1, kappa)
heavy 1: not shown
heavy 2: not shown
light: B1 light
notes: Heterodimerized anti-glypican-3 IgG1; substitution in only one H chain (the GpH7-B3 chain); also called He Ab
B11: GpH7-A5/GpH7-B3 variant E333_14T/GpL16-k0 (antibody, human IgG1, kappa)
heavy 1: not shown
heavy 2: not shown
light: B1 light
notes: as for B10
B12: GpH7-A5/GpH7-B3 variant I336_03V/GpL16-k0 (antibody, human IgG1, kappa)
heavy 1: not shown
heavy 2: not shown
light: B1 light
notes: as for B10
B13: GpH7-A5/GpH7-B3 variant I336_10E/GpL16-k0 (antibody, human IgG1, kappa)
heavy 1: not shown
heavy 2: not shown
light: B1 light
notes: as for B10
B14: GpH7-A5/GpH7-B3 variant I336_18N/GpL16-k0 (antibody, human IgG1, kappa)
heavy 1: not shown
heavy 2: not shown
light: B1 light
notes: as for B10
B15: GpH7-A5/GpH7-B3 variant T335_01G/GpL16-k0 (antibody, human IgG1, kappa)
heavy 1: not shown
heavy 2: not shown
light: B1 light
notes: as for B10
B16: GpH7-A5/GpH7-B3 variant T335_02A/GpL16-k0 (antibody, human IgG1, kappa)
heavy 1: not shown
heavy 2: not shown
light: B1 light
notes: as for B10
B17: GpH7-A5/GpH7-B3 variant T335_05P/GpL16-k0 (antibody, human IgG1, kappa)
heavy 1: not shown
heavy 2: not shown
light: B1 light
notes: as for B10
B18: GpH7-A5/GpH7-B3 variant T335_06M/GpL16-k0 (antibody, human IgG1, kappa)
heavy 1: not shown
heavy 2: not shown
light: B1 light
notes: as for B10

target: T5, FcγRIIIa extracellular domain with C-terminal His tag (human, UniProt P08637 17-208); experiment: SPR; He/Con_3a divided by He/Con_2b (FcγRIIIa over FcγRIIb)
T5 construct: extracellular domain; also called FcgRIIIa; 3a; not shown: His tag at the C terminus
Experimental: (§1) Analysis of interaction between objective antibody and the FcγR was carried out using Biacore T100 (GE Healthcare). HBS-EP+ (GE Healthcare) was used as the running buffer, and the measurement temperature was set to 25° C. Chips produced by immobilizing the antigen peptide by the amine coupling method to a Series S Sencor Chip CM5 (GE Healthcare), or alternatively, chips produced by allowing preliminarily biotinylated antigen peptides to interact with and immobilize onto a Series S Sensor Chip SA (certified) (GE Healthcare) were used. Antibodies of interest were captured onto an antigen peptide-immobilized chip, and allowed to interact to each FcγR diluted with running buffer. To regenerate and repeatedly use the chip, the antibodies captured on the chip were washed off by reacting 10 mM glycine-HCl, pH 1.5.
(§2) The FcγR-binding activity of each antibody was assessed primarily using as an indicator the FcγR-binding activity and dissociation constant for FcγR.

T5 sequence (P08637 17-208): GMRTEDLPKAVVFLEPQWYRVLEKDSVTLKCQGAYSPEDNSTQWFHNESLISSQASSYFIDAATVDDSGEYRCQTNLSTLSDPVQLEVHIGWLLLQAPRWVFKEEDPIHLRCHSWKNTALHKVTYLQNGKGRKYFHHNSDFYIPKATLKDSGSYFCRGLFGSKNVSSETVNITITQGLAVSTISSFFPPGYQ

First: B1
Second: B2
The “He_3a/2b (IIIa/IIb)” value of the first is lower: 0.69 ratio for the first, 0.74 ratio for the second.

B3 was tested, and the “He_3a/2b (IIIa/IIb)” value was 0.71 ratio.

target: T1, FcγRIIb extracellular domain with …; experiment: SPR (Biacore), antibody captured on antigen peptide chip, FcγR as analyte
Experimental: as §1, §2

First: B1
Second: B2
The He/Con_2b of the first is higher: 116 relative binding (GpH7-A5/GpH7-B3/GpL16-k0 = 100) for the first, 99.2 relative binding (GpH7-A5/GpH7-B3/GpL16-k0 = 100) for the second.

In the case of B3, the He/Con_2b is reported as 111 relative binding (GpH7-A5/GpH7-B3/GpL16-k0 = 100).

target: T5, FcγRIIIa extracellular domain with …; experiment: as above
Experimental: as §1, §2

First: B1
Second: B2
The He/Con_3a of the first is higher: 80.2 relative binding (GpH7-A5/GpH7-B3/GpL16-k0 = 100) for the first, 73.4 relative binding (GpH7-A5/GpH7-B3/GpL16-k0 = 100) for the second.

In the case of B3, the He/Con_3a is reported as 78.6 relative binding (GpH7-A5/GpH7-B3/GpL16-k0 = 100).

target: T6, FcγRIa (human, UniProt P12314 16-292); experiment: SPR (Biacore), antibody captured, FcγR as analyte; binding as % of GpH7-A5/GpH7-B3/GpL16-k0
T6 construct: extracellular domain; also called FcgRI; 1a; not shown: His tag at the C terminus
T6 sequence (P12314 16-292): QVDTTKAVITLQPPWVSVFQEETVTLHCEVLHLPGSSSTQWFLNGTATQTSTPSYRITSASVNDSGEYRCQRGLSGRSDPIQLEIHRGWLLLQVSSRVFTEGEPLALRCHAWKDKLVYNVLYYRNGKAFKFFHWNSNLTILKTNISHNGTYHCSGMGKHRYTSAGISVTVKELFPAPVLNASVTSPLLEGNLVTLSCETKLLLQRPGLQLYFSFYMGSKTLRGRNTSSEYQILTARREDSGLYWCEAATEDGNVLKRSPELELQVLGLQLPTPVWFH

First: B4
Second: B5
The He/Con_1a of the first is lower: 88.3 % of control for the first, 93.6 % of control for the second.

First: B6
Second: B7
The He/Con_1a of the first is higher: 92.3 % of control for the first, 91.8 % of control for the second.

Going from B8 to B9, the He/Con_1a rises from 88.8 % of control to 94.5 % of control.

target: T2, FcγRIIb; experiment: as above

First: B4
Second: B5
The He/Con_2b of the first is lower: 103 % of control for the first, 104 % of control for the second.

Compared with B6, B7 is higher in He/Con_2b: 105 % of control for the first, 106 % of control for the second.

Going from B8 to B9, the He/Con_2b rises from 101 % of control to 111 % of control.

target: T3, FcγRIIa H; experiment: SPR (Biacore), antibody captured on antigen-peptide chip, FcγR as analyte; binding relative to GpH7-A5/GpH7-B3/GpL16-k0 = 100

Going from B10 to B11, the He/Con_2aH falls from 101 % of HeCon Ab to 100 % of HeCon Ab.

B12 and B13 are the same in He/Con_2aH: 102 % of HeCon Ab for the first, 102 % of HeCon Ab for the second.

B14 and B15 are the same in He/Con_2aH: 103 % of HeCon Ab for the first, 103 % of HeCon Ab for the second.

First: B16
Second: B17
The He/Con_2aH of the first is lower: 101 % of HeCon Ab for the first, 108 % of HeCon Ab for the second.

B18 was tested, and the He/Con_2aH was 103 % of HeCon Ab.

target: T4, FcγRIIb; experiment: as above

Compared with B10, B11 is higher in He/Con_2b: 81.8 % of HeCon Ab for the first, 86.1 % of HeCon Ab for the second.

Going from B12 to B13, the He/Con_2b falls from 90.3 % of HeCon Ab to 89.8 % of HeCon Ab.

Compared with B14, B15 is lower in He/Con_2b: 97.6 % of HeCon Ab for the first, 96.7 % of HeCon Ab for the second.

Going from B16 to B17, the He/Con_2b rises from 94 % of HeCon Ab to 99.9 % of HeCon Ab.

In the case of B18, the He/Con_2b is reported as 99.4 % of HeCon Ab.
